Measured values reported in patent publication US20240352111A1 (Regeneron, published 2024).
Read-outs that look alike come from different tables or passages of the source. One block for each molecule: values may come before it.

Key:
[1] = biological target: MfArtemin-MMH (cynomolgous monkey (Macaca fascicularis)); experiment: cell-based or functional assay
hArtemin-MMH [2] = biological target: T1, hArtemin-MMH (human); experiment: cell-based or functional assay
T1 chain: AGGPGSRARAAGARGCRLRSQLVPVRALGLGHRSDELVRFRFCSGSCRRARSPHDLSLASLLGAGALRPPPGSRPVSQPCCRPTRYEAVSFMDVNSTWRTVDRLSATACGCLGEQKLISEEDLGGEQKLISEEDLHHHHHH

mArtemin-MMH [3] = biological target: T2, mArtemin-MMH (mouse); experiment: cell-based or functional assay
T2 chain: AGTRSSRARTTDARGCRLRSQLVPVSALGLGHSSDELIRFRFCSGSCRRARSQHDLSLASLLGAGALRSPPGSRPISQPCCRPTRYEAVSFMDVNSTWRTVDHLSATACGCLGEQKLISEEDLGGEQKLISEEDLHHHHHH

hArtemin-MMH [4] = biological target: T1, hArtemin-MMH; experiment: blocking ELISA, 75 pM hARTN.mmh binding to plate-coated hGFRa3.hFc
mArtemin-MMH [5] = biological target: T2, mArtemin-MMH; experiment: blocking ELISA, 150 pM msARTN.mmh binding to plate-coated hGFRa3.hFc
[6] = biological target: MfArtemin-MMH (cynomolgous monkey (Macaca fascicularis)); experiment: blocking ELISA, 400 pM mfARTN.mmh binding to plate-coated hGFRa3.hFc
[7] = biological target: MfArtemin-MMH (cynomolgous monkey (Macaca fascicularis)); experiment: SPR Biacore T200, MfArtemin-MMH captured by anti-myc mAb, mAb injected, 25 C
hArtemin-MMH [8] = biological target: T1, hArtemin-MMH; experiment: SPR Biacore T200, hArtemin-MMH captured by anti-myc mAb, mAb injected, 25 C
Procedure: (§1) The equilibrium dissociation constant (KD) for Artemin binding to each of Artemin monoclonal antibodies (mAbs) H4H33331P, H4H33335P, H4H33336P, and H4H33349P was determined using a real-time surface plasmon resonance Biacore T200 biosensor. All binding studies were performed in 10 mM HEPES, 150 mM NaCl, 3 mM EDTA, and 0.05% v/v Surfactant Tween-20, pH 7.4 (HBS-ET) running buffer at 25° C. The Biacore CM4 sensor chip surface was first derivatized by amine coupling with anti-myc mAb to capture hArtemin-MMH, MfArtemin-MMH, or mArtemin-MMH. Different concentrations of Artemin mAbs (60-2.2 nM, 3-fold serial dilution) prepared in […] running buffer were injected over the Artemin-captured surfaces for 3 min at a flow rate of 50 μL/min and their dissociation in HBS-ET running buffer was monitored for 5 minutes. At the end of each cycle, the Artemin-captured surfaces were regenerated using a 6 sec injection of 20 mM phosphoric acid.
(§2) The association rate (kₐ) and dissociation rate (kd) were determined by fitting the real-time binding sensorgrams to a 1:1 binding model with mass transport limitation using Scrubber 2.0c curve-fitting software. Binding dissociation equilibrium constant (KD) and dissociative half-life (t½) were calculated from the kinetic rates as: KD (M)=kd/kₐ, and t_{1/2} (min)=[In2/(60*kd)].

mArtemin-MMH [9] = biological target: T2, mArtemin-MMH; experiment: SPR Biacore T200, mArtemin-MMH captured by anti-myc mAb, mAb injected, 25 C
Procedure: as §1, §2

MfArtemin-MMH [10] = biological target: T3, MfArtemin-MMH (cynomolgous monkey (Macaca fascicularis)); experiment: cell-based or functional assay
T3 chain: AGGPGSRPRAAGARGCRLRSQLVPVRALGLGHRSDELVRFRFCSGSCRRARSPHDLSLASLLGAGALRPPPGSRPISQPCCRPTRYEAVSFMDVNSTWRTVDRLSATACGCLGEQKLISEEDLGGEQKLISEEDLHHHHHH

hArtemin-MMH [11] = biological target: T1, hArtemin-MMH; experiment: BLI (Octet HTX), mAb captured on AHC tips, artemin at 15 nM, 25 C
Procedure: (§3) The entire experiment was performed at 25° C. in 10 mM HEPES, 150 mM NaCl, 3 mM EDTA, 0.02% NaN3 and 0.05% v/v Surfactant Tween-20, 1 mg/mL BSA, pH7.4 (HBS-EBT) buffer with the plate shaking at a speed of 1000 rpm. Different Artemin mAbs were first captured onto anti-human antibody (AHC) coated Octet biosensor tips (Fortebio Inc, #18-5064) by submerging the biosensor tips for 40 seconds in wells containing 2 μg/mL of Artemin mAb. […] All the Artemin and Artemin mAb samples were prepared in HBS-EBT buffer. The real-time binding response was monitored during the entire course of the experiment and the binding response at the end of every step was recorded.

MfArtemin-MMH [12] = biological target: T3, MfArtemin-MMH; experiment: as above
Procedure: as §3

mArtemin-MMH [13] = biological target: T2, mArtemin-MMH; experiment: as above
Procedure: as §3

hArtemin-MMH [14] = biological target: T1, hArtemin-MMH; experiment: BLI (Octet HTX), mAb captured on AHC tips, artemin at 30 nM, 25 C
Procedure: as §3

MfArtemin-MMH [15] = biological target: T3, MfArtemin-MMH; experiment: as above
Procedure: as §3

mArtemin-MMH [16] = biological target: T2, mArtemin-MMH; experiment: as above
Procedure: as §3

hArtemin-MMH [17] = biological target: T1, hArtemin-MMH; experiment: BLI (Octet HTX), mAb captured on AHC tips, artemin at 7.5 nM, 25 C
Procedure: as §3

MfArtemin-MMH [18] = biological target: T3, MfArtemin-MMH; experiment: as above
Procedure: as §3

mArtemin-MMH [19] = biological target: T2, mArtemin-MMH; experiment: as above
Procedure: as §3

hArtemin-MMH [20] = biological target: T1, hArtemin-MMH; experiment: BLI (Octet HTX), mAb captured on AHC tips, artemin at 3.75 nM, 25 C
Procedure: as §3

MfArtemin-MMH [21] = biological target: T3, MfArtemin-MMH; experiment: as above
Procedure: as §3

mArtemin-MMH [22] = biological target: T2, mArtemin-MMH; experiment: as above
Procedure: as §3

MfArtemin-MMH [23] = biological target: T3, MfArtemin-MMH; experiment: SPR Biacore T200, MfArtemin-MMH captured by anti-myc mAb, mAb injected, 25 C
Procedure: as §1, §2

hArtemin-MMH [24] = biological target: T1, hArtemin-MMH; experiment: blocking ELISA, antibody blocks 75 pM hARTN.mmh binding to plate-coated hGFRa3.hFc
Procedure: (§4) Experiments were carried out using the following procedures. Plates were coated with hGFRa3.hFc at 2 μg/ml in PBS on a 96-well microtiter plate at 4° C. overnight for all three assays. […] In other microtiter plates, a constant amount of either 75 pM hARTN.mmh, 400 pM mfARTN.mmh, or 150 pM msARTN.mmh were separately bound with anti-ARTN antibodies and an irrelevant IgG4 antibody control at a serial dilution series from 0.0017 nM to 100 nM in PBS+0.5% BSA. After a one-hour incubation, the mixture solutions were transferred to microtiter plates coated with hGFRa3.hFc. After one hour of incubation at RT, the wells were washed with PBST, and plate-bound ARTN was detected with an anti-penta-His antibody conjugated with horseradish peroxidase (HRP) (Qiagen). The plates were then developed using TMB substrate solution (BD Biosciences, #555214) according to manufacturer's recommendation and absorbance at 450 nm was measured on a Victor X5 plate reader.
(§5) Binding data were analyzed using a sigmoidal dose-response model within Prism™ software (GraphPad). […] If the calculated IC50 value was below the LLOA, less than LLOA was reported. Percent blocking at 100 nM antibody was calculated based on the background-corrected binding signal observed at the highest antibody concentration tested using the formula listed below and reported for all tested antibodies: […]

mArtemin-MMH [25] = biological target: T2, mArtemin-MMH; experiment: blocking ELISA, antibody blocks 150 pM msARTN.mmh binding to plate-coated hGFRa3.hFc
Procedure: as §4, §5

MfArtemin-MMH [26] = biological target: T3, MfArtemin-MMH; experiment: blocking ELISA, antibody blocks 400 pM mfARTN.mmh binding to plate-coated hGFRa3.hFc
Procedure: as §4, §5

Max inhibition (%), SRE-luciferase reporter, 3 nM mfArtemin [1]: 10%
Max inhibition (%), SRE-luciferase reporter, 500 pM hArtemin (hArtemin-MMH [2]): 9%
Max inhibition (%), SRE-luciferase reporter, 1 nM mArtemin (mArtemin-MMH [3]): 1%
% Blocking with 100 nM Ab (hArtemin-MMH [4]): -3%
% Blocking with 100 nM Ab (mArtemin-MMH [5]): -31%
% Blocking with 100 nM Ab [6]: -28%
60 nM Artemin mAb Bound (RU) [7]: 0 RU
60 nM Artemin mAb Bound (RU) (hArtemin-MMH [8]): 0 RU
60 nM Artemin mAb Bound (RU) (mArtemin-MMH [9]): 0 RU
Molecule: Isotype Control mAb (antibody)

Max inhibition (%), SRE-luciferase reporter, 500 pM hArtemin (hArtemin-MMH [2]): 100%
Max inhibition (%), SRE-luciferase reporter, 3 nM mfArtemin (MfArtemin-MMH [10]): 100%
Max inhibition (%), SRE-luciferase reporter, 1 nM mArtemin (mArtemin-MMH [3]): 95%
Artemin Binding Response (nm) (hArtemin-MMH [11]): 0.11 nm
Artemin Binding Response (nm) (MfArtemin-MMH [12]): 0.04 nm
Artemin Binding Response (nm) (mArtemin-MMH [13]): 0.07 nm
Artemin Binding Response (nm) (hArtemin-MMH [14]): 0.11 nm
Artemin Binding Response (nm) (MfArtemin-MMH [15]): 0.09 nm
Artemin Binding Response (nm) (mArtemin-MMH [16]): 0.08 nm
Artemin Binding Response (nm) (hArtemin-MMH [17]): 0.07 nm
Artemin Binding Response (nm) (MfArtemin-MMH [18]): 0 nm
Artemin Binding Response (nm) (mArtemin-MMH [19]): 0.05 nm
Artemin Binding Response (nm) (hArtemin-MMH [20]): 0.02 nm
Artemin Binding Response (nm) (MfArtemin-MMH [21]): 0 nm
Artemin Binding Response (nm) (mArtemin-MMH [22]): 0.02 nm
60 nM Artemin mAb Bound (RU) (hArtemin-MMH [8]): 4 RU
Kd (hArtemin-MMH [8]): 2.22 nM
koff (hArtemin-MMH [8]): 0.00019 s⁻¹
kon (hArtemin-MMH [8]): 85300 M⁻¹ s⁻¹
t½ (hArtemin-MMH [8]): 1.02 h
60 nM Artemin mAb Bound (RU) (mArtemin-MMH [9]): 3 RU
60 nM Artemin mAb Bound (RU) (MfArtemin-MMH [23]): 3 RU
% Blocking with 100 nM Ab (hArtemin-MMH [24]): 65%
IC50 (hArtemin-MMH [24]): 0.505 nM
% Blocking with 100 nM Ab (mArtemin-MMH [25]): 63%
IC50 (mArtemin-MMH [25]): 0.0876 nM
% Blocking with 100 nM Ab (MfArtemin-MMH [26]): 71%
IC50 (MfArtemin-MMH [26]): 0.233 nM
B1: H4H33335P (antibody, human IgG4 S228P, kappa, V domains shown)
VH: EVQLVESGGGLVQPGGSLRLSCAASGFTFSSYDMHWVRQATGKGLEWVSTIDTAGDTYYPGSVKGRFTISRENAKNSLYLQMNSLRAGDTAVYYCARDGELELQGYFDLWGRGTLVTVSS
VL: DIQMTQSPSSLSASVGDRVTITCRASQIISIYLNWYQQKPGKAPKLLIYAASSLQSGVPSRFSGSGSGTDFTLTISSLQPEDFATYYCQQSYTTPLTFGGGTKVEIKR
notes: Fully human antibody; also called Artemin mAb; anti-ARTN antibody
